Where no end group is shown, it is not given here. The star is where a group is joined. Biotin = O=C1N[C@H]2[C@H](CS[C@H]2CCCCC(=O)*)N1
T1: Peptide A (human PAR-2), unbiotinylated (Human)
T1 construct: also called Peptide A No Biotin
T1 peptide: GTNRSSKGRSLIGKVDGT

T2: Peptide A (human PAR-2), N-terminal biotinylated (Human, N-terminal biotin via G4S linker)
T2 construct: also called Peptide A N-Term
T2 peptide: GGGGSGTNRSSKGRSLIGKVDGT

T3: Peptide E (mouse PAR-2), unbiotinylated (Mouse (Mus musculus))
T3 construct: also called Peptide E No Biotin
T3 peptide: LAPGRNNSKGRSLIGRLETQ

T4: Peptide E (mouse PAR-2), N-terminal biotinylated (Mouse (Mus musculus), N-terminal biotin via G4S linker)
T4 construct: also called Peptide E N-Term
T4 peptide: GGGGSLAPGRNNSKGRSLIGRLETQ

T5: Peptide G (rat PAR-2), unbiotinylated (Rat (Rattus norvegicus))
T5 construct: also called Peptide G No Biotin
T5 peptide: GPNSKGRSLIGRLDTP

T6: Peptide G (rat PAR-2), N-terminal biotinylated (Rat (Rattus norvegicus), N-terminal biotin via G4S linker)
T6 construct: also called Peptide G N-Term
T6 peptide: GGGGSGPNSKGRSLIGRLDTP

T7: Peptide G (rat PAR-2), C-terminal biotinylated (Rat (Rattus norvegicus), C-terminal biotin via G4S linker)
T7 construct: also called Peptide G C-Term
T7 peptide: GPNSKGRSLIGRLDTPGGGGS

T8: Peptide C (human PAR-2), N-terminal biotinylated (Human)
T8 construct: also called Peptide C N-Term
T8 peptide: Biotin-GGGGSSLIGKV

T9: Peptide C (human PAR-2), C-terminal biotinylated (Human)
T9 construct: also called Peptide C C-Term
T9 peptide: SLIGKVGGGGS-biotin

T10: Peptide B (human PAR-2), unbiotinylated (Human)
T10 construct: also called Peptide B No Biotin
T10 peptide: SLIGKVDGTSHVTG

T11: Peptide D (N-terminal domain of human PAR-2-mouse IgG2a) (Human)
T11 chain: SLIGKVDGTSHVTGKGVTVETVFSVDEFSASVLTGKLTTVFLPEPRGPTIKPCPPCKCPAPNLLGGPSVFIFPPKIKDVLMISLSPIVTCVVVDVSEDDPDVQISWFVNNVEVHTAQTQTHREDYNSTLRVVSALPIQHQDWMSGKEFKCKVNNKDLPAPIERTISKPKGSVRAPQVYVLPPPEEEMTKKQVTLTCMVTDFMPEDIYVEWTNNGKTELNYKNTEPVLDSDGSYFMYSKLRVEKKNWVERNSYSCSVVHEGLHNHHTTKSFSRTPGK


Key:
full length human PAR-2 [1] = target: T12, full length human PAR-2 (human, UniProt P55085 26-397); experiment: MSD cell binding
T12 construct: overexpressed on HEK293-derived 293/D9 cells; also called 293/D9/hPAR-2rec cells
T12 sequence (P55085 26-397 G138A limits assumed): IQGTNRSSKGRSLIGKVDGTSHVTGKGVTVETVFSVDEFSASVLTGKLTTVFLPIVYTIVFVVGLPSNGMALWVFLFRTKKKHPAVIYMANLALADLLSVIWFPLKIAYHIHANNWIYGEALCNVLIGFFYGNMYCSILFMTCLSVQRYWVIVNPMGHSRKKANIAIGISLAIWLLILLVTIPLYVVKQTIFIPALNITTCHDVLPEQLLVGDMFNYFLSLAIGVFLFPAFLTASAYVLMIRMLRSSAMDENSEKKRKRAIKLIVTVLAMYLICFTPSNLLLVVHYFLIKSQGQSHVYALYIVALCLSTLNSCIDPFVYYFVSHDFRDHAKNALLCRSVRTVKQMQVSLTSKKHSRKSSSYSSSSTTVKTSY
Method: HEK293 cells were transfected with an NF-κB-luciferase-IRES-eGFP reporter plasmid. […] A clonal cell line, named D9, having low background levels of luciferase activity and high levels of eGFP when induced with IL-1β was made by a series of successive sorts of cell populations using flow cytometry. The 293/D9 cell line was then separately transfected with human PAR-2 or mouse PAR-2 to create the stable cell lines 293/D9/h PAR-2rec and 293/D9/m PAR-2rec, respectively.
Cells were plated on MSD high-bind 96 well plates at a density of 4×10⁴ cells/well in PBS and incubated for one hour at room temperature. Cells were then blocked in PBS with 2% BSA and incubated at room temperature for one hour. Anti-PAR-2 antibodies (ranging from 100 nM to 0.098 nM) were serially diluted two-fold in PBS with 0.5% BSA and incubated with the cells for one hour at room temperature followed by washing in PBS with 0.5% BSA. Sulfo-tagged anti-human IgG antibody (MSD) at a concentration of 0.1 μg/ml was then added to the cell/antibody mixture and incubated at room temperature for an additional hour. After another wash, a 1× non-surfactant containing read buffer was added and electro-chemiluminescent signal was read on the MSD Sector Imager. Signal of antibody binding to 293/D9 cells was subtracted from signal to 293/D9/hPAR-2rec or 293/D9/mPAR-2rec cells. Subtracted data were analyzed using a sigmoidal dose-response model in GraphPad Prism and EC₅₀ and Bₘₐₓ values were reported (Table 18). EC₅₀ values are defined as the antibody concentration required to achieve 50% maximal binding (Bₘₐₓ) to cells.

[2] = target: T1, Peptide A (human PAR-2), unbiotinylated; experiment: SPR, antibody captured
Method: (§1) Equilibrium dissociation constants (KD values) for antigen binding to selected purified PAR-2 antibodies were determined by surface kinetics using a real-time surface plasmon resonance biosensor assay. Antibody was captured on either a rabbit anti-mouse IgG polyclonal antibody (GE Healthcare, Piscataway, N.J.) surface or a goat anti-human IgG polyclonal antibody (Jackson Immuno Research Lab, West Grove, Pa.) surface created through direct amine chemical coupling to a BIACORE™ CM5 sensor chip to form a captured antibody surface. […] Antigen-antibody binding and dissociation were monitored in real time at room temperature. Kinetic analysis was performed to calculate KD and half-life of antigen/antibody complex dissociation (Table 10). For those antibodies where no T_{1/2} value is shown, steady state analysis was used to calculate the KD value. NB: no binding observed under current experimental conditions. ND: not determined.

full length human PAR-2 [3] = target: T12, full length human PAR-2; experiment: cell-based or functional assay
[4] = target: T1, Peptide A (human PAR-2), unbiotinylated; experiment: peptide ELISA titration
Method: (§2) Anti-PAR-2 antibodies were tested for their ability to bind to the PAR-2 peptides. Various PAR-2 Peptides (Table 3) were coated onto 96-well plates at a concentration of 2 μg/ml and incubated overnight followed by blocking in a suitable blocking agent for one hour. […] Purified anti-PAR-2 antibodies were added to the plate coated with PAR-2 peptides to a final concentration ranging from 0.2 to 2.0 μg/ml and incubated for one hour at room temperature. Detection of bound antibodies was determined with Horse-Radish Peroxidase (HRP) conjugated anti-mouse or human IgG (Jackson Immuno Research Lab, West Grove, Pa.) and developed by standard colorimetric response using tetramethylbenzidine (TMB) substrate. Absorbance was read at OD₄₅₀ for 0.1 second.
(§3) In another experiment, selected anti-PAR-2 antibodies cloned onto human IgG4 were tested for binding to unbiotinylated and biotinylated forms of PAR-2 peptides (Peptides A, E, F and G; as described above). […] Absorbance values at 450 nm were analyzed using a sigmoidal dose-response model in GraphPad Prism (GraphPad Software, Inc., La Jolla, Calif.) and EC₅₀ values were reported (Table 9). EC₅₀ values are defined as the antibody concentration required to achieve 50% maximal binding to PAR-2 peptide.

[5] = target: T2, Peptide A (human PAR-2), N-terminal …; experiment: peptide ELISA titration
Method: as §2, §3

[6] = target: T13, Peptide A (human PAR-2), C-terminal biotinylated (Human, C-terminal biotin via G4S linker); experiment: peptide ELISA titration
T13 construct: also called Peptide A C-Term
Method: as §2, §3

[7] = target: T3, Peptide E (mouse PAR-2), unbiotinylated; experiment: peptide ELISA titration
Method: as §2, §3

[8] = target: T4, Peptide E (mouse PAR-2), N-terminal …; experiment: peptide ELISA titration
Method: as §2, §3

[9] = target: T14, Peptide F (monkey PAR-2), N-terminal biotinylated (Monkey (Macaca mulatta), N-terminal biotin via G4S linker); experiment: peptide ELISA titration
T14 construct: also called Peptide F N-Term
T14 sequence (peptide, as listed by the source): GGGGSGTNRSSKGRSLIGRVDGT
Method: as §2, §3

[10] = target: T5, Peptide G (rat PAR-2), unbiotinylated; experiment: peptide ELISA titration
Method: as §2, §3

[11] = target: T6, Peptide G (rat PAR-2), N-terminal …; experiment: peptide ELISA titration
Method: as §2, §3

[12] = target: T7, Peptide G (rat PAR-2), C-terminal …; experiment: peptide ELISA titration
Method: as §2, §3

[13] = target: T1, Peptide A (human PAR-2), unbiotinylated; experiment: peptide ELISA
Method: as §2

[14] = target: T2, Peptide A (human PAR-2), N-terminal …; experiment: peptide ELISA
Method: as §2

[15] = target: T13, Peptide A (human PAR-2), C-terminal …; experiment: peptide ELISA
Method: as §2

[16] = target: T8, Peptide C (human PAR-2), N-terminal …; experiment: peptide ELISA
Method: as §2

[17] = target: T9, Peptide C (human PAR-2), C-terminal …; experiment: peptide ELISA
Method: as §2

[18] = target: T1, Peptide A (human PAR-2), unbiotinylated; experiment: SPR, antibody captured, steady state
Method: as §1

[19] = target: T10, Peptide B (human PAR-2), unbiotinylated; experiment: SPR, antibody captured; SPR at room temperature, monomeric peptide 15.6-250 nM injected over captured antibody
Method: as §1

[20] = target: T11, Peptide D (N-terminal domain of human …); experiment: peptide ELISA
[21] = target: T14, Peptide F (monkey PAR-2), N-terminal …; experiment: SPR, antibody captured
Method: as §1

full length human PAR-2 [22] = target: T12, full length human PAR-2; experiment: cell-based or functional assay; remark: listed apart in the source

| Binder | Kd [2] [nM] | T1/2 [2] [min] | IC50, NF-kB-luciferase, 20 nM Trypsin (full length human PAR-2 [3]) [nM] | EC50 [4] [nM] | EC50 [5] [nM] | EC50 [6] [nM] | EC50 [7] [nM] | EC50 [8] [nM] | EC50 [9] [nM] | EC50 [10] [nM] | EC50 [11] [nM] | EC50 [12] [nM] | Kd [18] [nM] | binding result [20] | Kd [21] [nM] | T1/2 [21] [min] | IC50, NF-kB-luciferase, 10 nM Human Trypsin 1 (full length human PAR-2 [22]) [nM] | IC50, NF-kB-luciferase, 200 nM Factor Xa (full length human PAR-2 [22]) [nM] | IC50, NF-kB-luciferase, 750 nM Lung Tryptase (full length human PAR-2 [22]) [nM] | also measured |
| --- | --- | --- | --- | --- | --- | --- | --- | --- | --- | --- | --- | --- | --- | --- | --- | --- | --- | --- | --- | --- |
| H4H580P (antibody, human IgG4, V domains shown, also called H1H580P variable regions) VH: QVQLVESGGGVVQPGRSLRLSCVASGFTFSRYGMHWVRQAPGKGLEWVVVISYDGINKYYADSVKGRFTISRDNSKNTVYLQMNSLRAEDTAVYHCAKGDFWSGYFDYWGQGTLVTVSS VL: DIVMTQTPLSSPVTLGQPASISCRSSQSLVHSDGNTYLSWLHQRPGQPPRLLIYKISNRFSGVPDRFSGSGAGTDFTLQISRVEAEDVGIYYCMQATQFPTFGGGTKVEIK | 103 | 0.88 | 3.5 | 0.09 | 0.16 | 0.202 | 2.53 | 0.932 | 0.148 | 0.139 | 0.142 | 0.1 |  |  |  |  |  |  |  | Bmax (full length human PAR-2 [1]): 30200 MSD Unit; EC50 (full length human PAR-2 [1]): 8.69 nM |
| H2M610N (antibody, V domains shown, chimeric: human variable, mouse constant domains) VH: EVQLVESGGNLVQPGRSLRLSCAASGFTFDDYAMHWVRQAPGKGLEWVSGISWNSGSRGYADSVKGRFTISRDNAKNSLYLQMNSLRTEDTAFYYCTKEDEAFDYWGQGTLVTVSS VL: not shown |  |  |  |  |  |  |  |  |  |  |  |  | 71.3 |  |  |  |  |  |  | OD450 [13]: 1 to 4 od; OD450 [14]: 1 to 4 od; OD450 [15]: 1 to 4 od; OD450 [16]: 0 to 0.09 od; OD450 [17]: 0 to 0.09 od; Kd [19]: 360 nM; T1/2 [19]: 0.8 min |
| H4H578P (antibody, human IgG4, V domains shown, also called H1H578P variable regions) VH: QVQLVESGGGVVQPGMSLRLSCAASGFTFRRYGMHWVRQAPGKGLEWVAVIWYDGSNKYYVDSVKGRFTISRDNSKNTLYLQMNSLRAEDTAVYYCASEITVGDWFDPWGQGTLVTVSS VL: AIQMTQSPSSLSASVGDRVTITCRASQGIRNDLGWYQQKPGKAPKLLIYAASSLHSGVPSRFSGSGSGTDFTLTISSLQPEDFATYYCLQDFNYPLTFGGGTKVEIK | 245 | 0.17 |  | 0.034 | 0.062 | 0.04 | 2.78 | 0.09 | 0.036 | 0.046 | 0.081 |  |  |  |  |  |  |  |  |  |
| H4H573P (antibody, human IgG4, V domains shown, also called H1H573P variable regions) VH: EVQLVESGGGLVQPGRSLRLSCAASGFTFDDYAMHWVRQGPGKGLEWVSGISWNGGSAGYADSVKGRFTISRDNAKNSLYLQLNSLRAEDTALYYCAKEDYAFDIWGQGTMVTVSS VL: not shown |  |  |  | 0.093 | 0.093 | 0.022 | 0.355 | 0.016 | 0.018 | 0.014 | 0.017 | 10.1 | 749 |  |  |  |  |  |  |  |
| H4H591N (antibody, human IgG4, V domains shown, also called H2M591N variable regions) VH: EVQLLESGGGLVQPGGSLRLSCATSGFTFSRYTMTWVRQAPGKGLFWVSGIGGSGGRAYYADSVKGRFTLSRDNSKNTLYLQMNSLRAEDTAVYYCAKEGDSGYDLDYWGRGTLVTVSS VL: DIQMTQYPSSLSASVGDRVTITCRARQGISNYLAWLQQKPGKAPKSLIYAASSLQRGVPSKFSGSGSGTDFTLTISSLQPEDSATYYCQQYKISPLTFGGGTKVEIK |  |  | 204 | 0.01 | 0.022 | 0.016 |  |  | 0.011 |  |  |  |  | binds | 8.54 | 21 | 105 | 74.6 | 62.9 |  |
| H4H618N (antibody, human IgG4, V domains shown, also called H2M618N variable regions) VH: EVQLLESGGGLVQPGGSLRLSCAASGFTFRSYTMTWVRQAPGKGLDWVSGITDSGAGTYYGDSVKGRFTISRDNSKNTLYLQMNSLRAEDTAVYYCVKEGDSGYDLDYWGQGTLVTVSS VL: DIQMTQSPSSLSASVGDRVTITCRASQGISTYLAWLQQKPGKAPKSLIYATSSLQSGVPSKFSGSRSGTDFTLTISSLQPEDFATYYCQQYKSSPLTFGGGTKVEIK |  |  | 50.2 | 0.009 | 0.021 | 0.016 |  |  | 0.011 |  |  |  |  | binds | 13.8 | 5 | 92.2 | 47.2 | 8.5 |  |

From patent US20110059095A1 (Regeneron, published 2011)
